Assay results from PMC3410491.

Assays:
[1] = biological target: Chara myosin heavy chain (Chara corallina (Chara australis) (endogenous in internodal cells)); test: SEC; partially purified Chara myosin on Superdex 200HR in 50 mM Tris-HCl pH 8.0, 2 mM MgCl2, 1 mM EGTA, 4 mM ATP, 1 mM DTT; peak fraction No. 20 concentrated and run on SDS-PAGE, stained with coomassie brilliant blue; molar ratios roughly estimated
[2] = biological target: Chara myosin heavy chain (Chara corallina (Chara australis) (endogenous in internodal cells))
[3] = biological target: Chara myosin heavy chain (Chara corallina (Chara australis) (endogenous in internodal cells)); remark: listed apart in the source

stoichiometry N (molar ratio to the heavy chain) [1] | actin activated ATPase of column purified Chara myosin; increase on adding both Ca++ and calmodulin [2] [%] | actin activated ATPase of column purified Chara myosin; increase on adding calmodulin [2] [%] | sliding velocity of F-actin on Chara myosin in the in vitro motility assay; increase over the standard buffer on adding 0.1 mM Ca++ and 0.1 mg/ml calmodulin; reversible on washing out [3] [%] | sliding velocity of F-actin on Chara myosin in the in vitro motility assay; increase over the standard buffer on adding 0.1 mg/ml calmodulin [3] [%] | Substance
2.5 | – | – | – | – | 18 kDa polypeptide of Chara myosin (natural protein)
0.7 | – | – | – | – | 20 kDa polypeptide of Chara myosin (natural protein)
– | 91 | 24 | 35 | 24 | bovine calmodulin (from UniProt P62157 1-149) (natural protein)
